Measured values taken from patent US20050137135A1 (priority 2002, published 2005).
Square brackets hold non-standard residues; d marks the D form. Ends that are not written are not given here. Peptide text beside a SMILES is read from it. Ahx = NCCCCCC(=O)O

How the values were obtained:
[1] = target: T1, rat pancreatic islet (wild type) GIP-receptor (Rattus norvegicus, UniProt P43219); experiment: biochemical; assay type: binding; conditions: read-out: Receptor Binding % Displacement at 20 μM
T1 construct: expressed in transfected cells; host or cells: CHO-K1 (Chinese hamster ovary)
T1 sequence (P43219 19-455): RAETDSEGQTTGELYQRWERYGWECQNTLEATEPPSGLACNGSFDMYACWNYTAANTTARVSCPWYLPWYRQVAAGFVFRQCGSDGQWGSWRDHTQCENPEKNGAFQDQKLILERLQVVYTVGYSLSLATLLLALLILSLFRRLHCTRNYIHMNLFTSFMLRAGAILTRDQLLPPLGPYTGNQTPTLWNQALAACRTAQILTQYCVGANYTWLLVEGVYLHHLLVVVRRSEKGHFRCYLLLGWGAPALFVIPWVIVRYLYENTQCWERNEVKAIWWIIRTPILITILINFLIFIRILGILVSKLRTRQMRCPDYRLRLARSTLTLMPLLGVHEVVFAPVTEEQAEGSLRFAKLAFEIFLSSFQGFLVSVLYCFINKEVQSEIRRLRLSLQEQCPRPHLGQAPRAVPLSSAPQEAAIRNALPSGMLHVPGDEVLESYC
Experimental: (§1) Cells were cultured in DMEM/F12, supplemented with 10% newborn calf serum, 50 units/ml penicillin G, and 50 μg/ml streptomycin (Culture media and antibiotics from Gibco BRL, Life Technologies). Cells were grown in 75 cm^2 flasks until 80-90% confluent, when they were split and seeded onto 24 well plates at a density of 50,000 cells/well. Experiments were carried out 48 h later.
(§2) Binding studies using ^125I-labeled spGIP1-42, purified by high performance liquid chromatography (HPLC), were performed essentially as described previously-[21]. wtGIP-R1 Cells (1-5×10^5/well) were washed twice at 4° C. in binding buffer (BB), consisting of DMEM/F12 (GIBCO), 15 mM HEPES, 0.1% bovine serum albumin (BSA), 1% Trasylol (aprotinin; Bayer), pH 7.4. They were incubated for 12-16 h at 4° C. with ^125I-spGIP (50,000 cpm) in the presence or absence of unlabeled GIP1-42 or analogue. Following incubation, cells were washed twice with ice cold buffer, solubilized with 0.1 M NaOH (1 ml), and transferred to culture tubes for counting of cell-associated radioactivity. Nonspecific binding was defined as that measured in the presence of 1 μM GIP1-42 or GIP1-30, and specific binding expressed as % of binding in the absence of competitor (% B/Bo).

[2] = target: T1, rat pancreatic islet (wild type) GIP-receptor; experiment: cAMP production in CHO-K1 cells expressing the GIP-receptor (wtGIP-R1 cells); assay type: cell-based; conditions: Table 3; cyclic AMP stimulated by 20 μM peptide if plateau levels were not achieved
Experimental: as §1
Cells were extracted with 70% ethanol and cAMP levels measured by radioimmunoassay (Biomedical Technologies, Stoughton, Mass.). Data are expressed as fmol/1000 cells or % maximal GIP1-42-stimulated cAMP production (inhibition experiments).

[3] = target: T2, rat pancreatic islet (wild type) GIP-receptor stably expressed on CHO-K1 cells (rat, UniProt P43219 19-455); experiment: displacement of 125I-GIP from CHO-K1 cells transfected with rat GIP receptor, 20 µM peptide
T2 construct: whole, on cells; also called wtGIPR cells; wtGIP-R1 cells
T2 sequence (looked up): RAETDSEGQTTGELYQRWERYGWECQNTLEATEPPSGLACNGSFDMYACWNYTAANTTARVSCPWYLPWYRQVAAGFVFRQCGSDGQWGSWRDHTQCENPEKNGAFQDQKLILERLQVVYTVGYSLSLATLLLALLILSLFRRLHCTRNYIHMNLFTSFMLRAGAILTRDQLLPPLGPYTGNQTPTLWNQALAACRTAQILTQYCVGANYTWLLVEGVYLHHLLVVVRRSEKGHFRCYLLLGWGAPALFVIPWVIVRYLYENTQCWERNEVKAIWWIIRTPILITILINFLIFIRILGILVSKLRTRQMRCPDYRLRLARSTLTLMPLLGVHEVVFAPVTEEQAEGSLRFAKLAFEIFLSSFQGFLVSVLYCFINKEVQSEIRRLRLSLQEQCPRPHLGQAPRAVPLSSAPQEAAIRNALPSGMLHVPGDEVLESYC
Experimental: as §1, with “cm²” for “cm^2”
as §2, with “¹²⁵I-labeled spGIP₁₋₄₂,” for “^125I-labeled spGIP1-42,”, “(1-5×10⁵/well)” for “(1-5×10^5/well)”, “¹²⁵I-spGIP” for “^125I-spGIP”, “GIP₁₋₄₂” for “GIP1-42”, “GIP₁₋₃₀,” for “GIP1-30,”

[4] = target: T2, rat pancreatic islet (wild type) …; experiment: cell-based or functional assay
[5] = target: T2, rat pancreatic islet (wild type) …; experiment: competition with 125I-GIP on CHO-K1 cells transfected with rat GIP receptor
Experimental: as §1, with “cm²” for “cm^2”
as §2, with “¹²⁵I-labeled spGIP₁₋₄₂,” for “^125I-labeled spGIP1-42,”, “(1-5×10⁵/well)” for “(1-5×10^5/well)”, “¹²⁵I-spGIP” for “^125I-spGIP”, “GIP₁₋₄₂” for “GIP1-42”, “GIP₁₋₃₀,” for “GIP1-30,”

| Molecule | inhibition at 20 µM [1] [%] | cAMP Production Max. cAMP (Fold Basal) [2] [Fold Basal] | % Displacement at 20 µM [3] [%] | Max. cAMP (Fold Basal) [4] [fold basal] | IC50 [5] [nM] | cAMP Production EC50 [4] [nM] |
| --- | --- | --- | --- | --- | --- | --- |
| CC[C@H](C)[C@H](NC(=O)[C@H](CO)NC(=O)[C@H](Cc1ccc(O)cc1)NC(=O)[C@H](CC(=O)O)NC(=O)[C@H](CO)NC(=O)[C@@H](NC(=O)[C@H](Cc1ccccc1)NC(=O)[C@@H](NC(=O)CNC(=O)[C@H](CCC(=O)O)NC(=O)[C@H](C)NC(=O)[C@@H](N)Cc1ccc(O)cc1)[C@@H](C)O)[C@@H](C)CC)C(=O)N[C@@H](C)C(=O)N[C@@H](CCSC)C(=O)NCCCCCC(=O)NCCCCCC(=O)NCCCCCC(=O)N[C@@H](CCC(N)=O)C(=O)N[C@@H](CCC(N)=O)C(=O)N[C@@H](CC(=O)O)C(=O)N[C@@H](Cc1ccccc1)C(=O)N[C@H](C(=O)N[C@@H](CC(N)=O)C(=O)N[C@@H](Cc1c[nH]c2ccccc12)C(=O)N[C@@H](CC(C)C)C(=O)N[C@@H](CC(C)C)C(=O)N[C@@H](C)C(=O)N[C@@H](CCC(N)=O)C(=O)N[C@@H](CCCCN)C(N)=O)C(C)C [GlP(1-14)(Ahx)3(19-30)NH2] (H-YAEGTFISDYSIAM[Ahx][Ahx][Ahx]QQDFVNWLLAQK-NH2; N-terminus assumed) | 82.7 ± 3.2 | 49.5 ± 1.6 |  |  |  |  |
| CC[C@H](C)[C@H](NC(=O)[C@H](CO)NC(=O)[C@H](Cc1ccc(O)cc1)NC(=O)[C@H](CC(=O)O)NC(=O)[C@H](CO)NC(=O)[C@@H](NC(=O)[C@H](Cc1ccccc1)NC(=O)[C@@H](NC(=O)CNC(=O)[C@H](CCC(=O)O)NC(=O)[C@H](C)NC(=O)[C@@H](N)Cc1ccc(O)cc1)[C@@H](C)O)[C@@H](C)CC)C(=O)N[C@@H](C)C(=O)N[C@@H](CCSC)C(=O)NCCCCCC(=O)N[C@@H](CCC(N)=O)C(=O)N[C@@H](CCC(N)=O)C(=O)N[C@@H](CC(=O)O)C(=O)N[C@@H](Cc1ccccc1)C(=O)N[C@H](C(=O)N[C@@H](CC(N)=O)C(=O)N[C@@H](Cc1c[nH]c2ccccc12)C(=O)N[C@@H](CC(C)C)C(=O)N[C@@H](CC(C)C)C(=O)N[C@@H](C)C(=O)N[C@@H](CCC(N)=O)C(=O)N[C@@H](CCCCN)C(N)=O)C(C)C [GIP(1-14)(Ahx)1(19-30)NH2] (H-YAEGTFISDYSIAM[Ahx]QQDFVNWLLAQK-NH2; N-terminus assumed) | 86.1 ± 1.9 | 102.1 ± 5.0 |  |  |  |  |
| YAEGTFQQDFVNWLLAQK-NH2 (peptide, UniProt P09681 52-57, looked up, range 1-6;range 19-30; Core deletion, no linker (formula 5, C not used, truncated at residue 30)) [GIP(1-6)(19-30)NH2] |  |  | 88.2 | 1.81 | 2740 |  |
| YAEGTFISDYSIAMEKEKQQDFVNWLLAQK-NH2 (range 1-14;range 19-30) [GIP(1-14)(EKEK)(19-30)NH2] |  |  | 98.7 | 80.6 | 26 | 0.077 |
| YAEGTFISDYSIAMAAAAQQDFVNWLLAQK-NH2 (range 1-14;range 19-30) [GIP(1-14)(AAAA)(19-30)NH2] |  |  | 100 | 82.1 | 66.3 | 0.0587 |
| YAEGTFEKEEKEKEEKEQQDFVNWLLAQK-NH2 (range 1-6;range 19-30; The expected mass 3574.0 fits the 11-residue linker as printed) [GIP(1-6)(EKEEKEKEEKE)(19-30)NH2] |  |  | 75.1 | 84.9 | 4270 | 8390 |
| YAEGTFAAAAQQDFVNWLLAQK-NH2 (range 1-6;range 19-30; also called GIP(l-6)(AAAA)(19-30)NH2) [GIP(1-6)(AAAA)(19-30)NH2] |  |  | 88.7 | 7.21 | 2410 |  |
| YAEGTF[Ahx][Ahx][Ahx]QQDFVNWLLAQK-NH2 (peptide, UniProt P09681 52-57, looked up, N-terminus assumed; SMILES CC(C)C[C@H](NC(=O)[C@H](CC(C)C)NC(=O)[C@H](Cc1c[nH]c2ccccc12)NC(=O)[C@H](CC(N)=O)NC(=O)[C@@H](NC(=O)[C@H](Cc1ccccc1)NC(=O)[C@H](CC(=O)O)NC(=O)[C@H](CCC(N)=O)NC(=O)[C@H](CCC(N)=O)NC(=O)CCCCCNC(=O)CCCCCNC(=O)CCCCCNC(=O)[C@H](Cc1ccccc1)NC(=O)[C@@H](NC(=O)CNC(=O)[C@H](CCC(=O)O)NC(=O)[C@H](C)NC(=O)[C@@H](N)Cc1ccc(O)cc1)[C@@H](C)O)C(C)C)C(=O)N[C@@H](C)C(=O)N[C@@H](CCC(N)=O)C(=O)N[C@@H](CCCCN)C(N)=O, range 52-57) [GIP(1-6)(Ahx)3(19-30)NH2] |  |  | 67.1 | 13.5 | 4030 |  |
| YAEGTF[Ahx][Ahx]QQDFVNWLLAQK-NH2 (peptide, UniProt P09681 52-57, looked up, N-terminus assumed; SMILES CC(C)C[C@H](NC(=O)[C@H](CC(C)C)NC(=O)[C@H](Cc1c[nH]c2ccccc12)NC(=O)[C@H](CC(N)=O)NC(=O)[C@@H](NC(=O)[C@H](Cc1ccccc1)NC(=O)[C@H](CC(=O)O)NC(=O)[C@H](CCC(N)=O)NC(=O)[C@H](CCC(N)=O)NC(=O)CCCCCNC(=O)CCCCCNC(=O)[C@H](Cc1ccccc1)NC(=O)[C@@H](NC(=O)CNC(=O)[C@H](CCC(=O)O)NC(=O)[C@H](C)NC(=O)[C@@H](N)Cc1ccc(O)cc1)[C@@H](C)O)C(C)C)C(=O)N[C@@H](C)C(=O)N[C@@H](CCC(N)=O)C(=O)N[C@@H](CCCCN)C(N)=O, range 52-57) [GIP(1-6)(Ahx)2(19-30)NH2] |  |  | 75.3 | 2.55 | 4980 |  |
| YAEGTFISDYSIAMQQDFVNWLLAQK-NH2 (peptide, UniProt P09681 52-65, looked up, range 1-14;range 19-30; Core deletion, no linker (formula 6, D unused, truncated at residue 30)) [GIP(1-14)(19-30)NH2] |  |  | 95.4 | 127 | 1370 | 78.7 |
| YAEGTFEKEKQQDFVNWLLAQK-NH2 (range 1-6;range 19-30) [GIP(1-6)(EKEK)(19-30)NH2] |  |  | 86.8 | 8.17 | 2090 |  |
| YAEGTF[Ahx]QQDFVNWLLAQK-NH2 (peptide, UniProt P09681 52-57, looked up, N-terminus assumed; SMILES CC(C)C[C@H](NC(=O)[C@H](CC(C)C)NC(=O)[C@H](Cc1c[nH]c2ccccc12)NC(=O)[C@H](CC(N)=O)NC(=O)[C@@H](NC(=O)[C@H](Cc1ccccc1)NC(=O)[C@H](CC(=O)O)NC(=O)[C@H](CCC(N)=O)NC(=O)[C@H](CCC(N)=O)NC(=O)CCCCCNC(=O)[C@H](Cc1ccccc1)NC(=O)[C@@H](NC(=O)CNC(=O)[C@H](CCC(=O)O)NC(=O)[C@H](C)NC(=O)[C@@H](N)Cc1ccc(O)cc1)[C@@H](C)O)C(C)C)C(=O)N[C@@H](C)C(=O)N[C@@H](CCC(N)=O)C(=O)N[C@@H](CCCCN)C(N)=O, range 52-57) [GIP(1-6)(Ahx)1(19-30)NH2] |  |  | 62 | 95.9 | 8730 | 14500 |
